Assay results as given in patent publication US11857697B2, “Compositions and methods for obtaining 3-dimensional lung-like epithelium and related uses thereof” (THE REGENTS OF THE UNIVERSITY OF MICHIGAN, priority 2017, dated 2024).
“Also recorded” adds a separate entry of the source.

B1: Recombinant Human Fibroblast Growth Factor 10 (protein, UniProt O15520 38-208, looked up)
Fibroblast growth factor 10: QALGQDMVSPEATNSSSSSFSSPSSAGRHVRSYNHLQGDVRWRKLFSFTKYFLKIEKNGKVSGTKKENCPYSILEITSVEIGVVAVKAINSNYYLAMNKKGKLYGSKEFNNDCKLKERIEENGYNTYASFNWQHNGRQMYVALNGKGAPRRGQKTRRKNTSAHFLPMVVHS

What was measured:
[1] = system: 12 week human fetal distal epithelial lung buds; experiment: Isolated human fetal lung bud culture in Matrigel: growth/expansion; assay type: cell-based; conditions: FGF10 500 ng/mL
From the text: All research utilizing human fetal tissue was approved by the University of Michigan institutional review board. Normal human fetal lungs were obtained from the University of Washington Laboratory of Developmental Biology, and epithelial lung buds were dissected as described below. All experiments were repeated using tissues from 3 individual lungs; 84 day post fertilization of unknown gender, 87 day post fertilization male, and 87 day post fertilization of unknown gender. All tissues were shipped in Belzer's solution at 4 degrees Celsius and were processed and in culture within 24 hours of isolation.
(§1) Isolated mouse buds were cultured in 4-6 μl droplets of matrigel, covered with media, and kept at 37 degrees Celsius with 5% Carbon Dioxide. Isolated human fetal lung buds were cultured in 25-50 μl droplets of matrigel, covered with media, and kept at 37 degrees Celsius with 5% Carbon Dioxide.
Distal regions of 12 week fetal lungs were cut into ˜2 mm sections and incubated with dispase, 100% FBS and then 10% FBS as described above, and moved to a sterile petri dish. Mesenchyme was removed by repeated pipetting of distal lung pieces after dispase treatment. Buds were washed with DMEM until mesenchymal cells were no longer visible in the media. Buds were then moved to a 1.5 mL eppendorf tube containing 200 uL of Matrigel, mixed using a p200 pipette, and plated in ˜20 uL droplets in a 24 well tissue culture plate. Plates were placed at 37 degrees Celsius with 5% CO2 for 20 minutes while droplets solidified. 500 uL of media was added to each well containing a droplet. Media was changed every 2-3 days.
All mouse bud, human fetal bud, and hPSC-derived human lung organoids were grown in low-serum basal media (basal media) with added growth factors. […]

[2] = system: E13.5 mouse distal epithelial lung buds; experiment: Isolated E13.5 mouse distal lung bud culture in Matrigel droplet: growth/expansion; assay type: cell-based; conditions: FGF10 500 ng/mL (50-fold excess), up to 5 days
Experimental: as §1
Mouse buds were dissected from E13.5 embryos. For experiments using Sox9CreER; Rosa^Tomato/Tomato mice, 50 ug/g of tamoxifen was dissolved in corn oil and given by oral gavage on E12.5, 24 hours prior to dissection. Briefly, in sterile environment, whole lungs were placed in 100% dispase (Corning Cat#354235) on ice for 30 minutes. Lungs were then transferred using a 25 uL wiretrol tool (Drummond Scientific Cat#S5-000-2050) to 100% FBS (Corning Cat#35-010-CV) on ice for 15 minutes, and then transferred to a solution of Dulbecco's Modified Eagle Medium: Nutrient Mixture F12 (DMEM/F12, ThermoFisher SKU#12634-010) with 10% FBS and 1× Pennicillin-Streptomycin (ThermoFisher Cat#15140122) on ice. To dissect buds, a single lung or lung lobe was transferred by wiretrol within a droplet of media to a 100 mm sterile petri dish. Under a dissecting microscope, the mesenchyme was carefully removed and epithelial bud tips were torn away from the bronchial tree using tungsten needles (Point Technologies, Inc.). Care was taken to remove the trachea and any connective tissue from dissected lungs. Isolated bud tips were picked up using a p20 pipette and added to an eppendorf tube with cold Matrigel (Corning Ref#354248) on ice. The buds were picked up in a p20 pipette with 4-6 uL of Matrigel and plated on a 24-well tissue culture well (ThermoFisher Cat#142475). The plate was moved to a tissue culture incubator and incubated for 5 minutes at 37 degrees Celsius and 5% CO2 to allow the Matrigel droplet to solidify. 500 uL of media was then added to the dish in a laminar flow hood. Media was changed every 2-3 days.
All mouse bud, human fetal bud, and hPSC-derived human lung organoids were grown in low-serum basal media (basal media) with added growth factors. Basal media consisted of Dulbecco's Modified Eagle Medium: Nutrient Mixture F12 (DMEM/F12, ThermoFisher SKU#12634-010) supplemented with 1× N2 supplement (ThermoFisher Catalog#17502048) and […] B27 supplement (ThermoFisher Catalog#17504044), along with 2 mM Glutamax (ThermoFisher Catalog#35050061), 1× Pennicillin-Streptomycin (ThermoFisher Cat#15140122) and 0.05% Bovine Serum Albumin (BSA; Sigma product# A9647). BSA was weighed and dissolved in DMEM F/12 media before being passed through a SteriFlip 0.22 uM filter (Millipore Item# EW-29969-24) and being added to basal media. Media was stored at 4 degrees Celsius for up to 1 month. On the day of use, basal media was aliquoted and 50 ug/mL Ascorbic acid and 0.4 uM Monothioglycerol was added. […]

Molecule | Tissue expansion / cyst formation of bud tips ([1]; Y27632 10 uM) | Growth of human fetal lung buds ([1]; compared to basal media) | Bud growth [2]
C[C@@H](N)[C@H]1CC[C@H](C(=O)Nc2ccncc2)CC1 [Y27632, reference compound] | in combination with FGF10, but not alone, promoted growth of buds into larger cyst-like structures; also recorded: did not lead to tissue expansion | – | –
B1 | – | only modest growth; also recorded: expansion of the tissue was not robust | modest growth of buds
